Target: T1, murine PrP^c (mouse, UniProt P04925 23-230)
T1 construct: also called mouse PrP^c; normal cellular prion protein
Assay: immunoblot of whole spleen homogenate (FIG. 5)

T1 sequence (P04925 23-230 limits assumed): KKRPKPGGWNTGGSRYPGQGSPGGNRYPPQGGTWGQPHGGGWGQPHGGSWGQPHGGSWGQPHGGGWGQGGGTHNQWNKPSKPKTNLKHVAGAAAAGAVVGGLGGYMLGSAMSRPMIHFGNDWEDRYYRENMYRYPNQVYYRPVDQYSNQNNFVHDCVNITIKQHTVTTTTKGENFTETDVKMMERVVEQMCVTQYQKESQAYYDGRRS

B1: ICSM 18 (antibody, V domains shown)
VH: EVQLQQSGPELVKPGSSVKISCKASRNTFTDYNLDWVKQSHGKTLEWIGNVYPNNGVTGYNQKFRGKATLTVDKSSSTAYMELHSLTSEDSAVYYCALYYYDVSYWGQGTLVTVSA
VL: QIVLTQSPAIMSASPGEKVTMTCSASSSVSYMHWYQQKSGTSPKRWIYDTSKLASGVPARFSGSGSGTSYSLTISSMEAEDAATYFCHQWRSNPYTFGGGTKLEIKR
notes: also called biotinylated ICSM 18
Question: Does B1 bind?
Answer: Result: binds

Source: patent US20060280745A1 (MEDICAL RESEARCH COUNCIL, published 2006)
